Laboratory results: paper PMC7949077

Columns and labels:
Test in all cases: SPR
[1] = tested on: La (lupus antigen, SSB);HuR (ELAVL1); conditions: equimolar La and HuR, same total protein; 1:1 fit; SPR: HBS-EP buffer, Biacore T200 SA chip, 1:1 fit. UV crosslinking/EMSA: 2x RNA-binding buffer listed as 5 mM HEPES, 25 mM KCl, 2 mM MgCl2, 2 mM DTT, 0.1 mM …
La (lupus antigen, SSB) = conditions: SPR: HBS-EP buffer, Biacore T200 SA chip, 1:1 fit. UV crosslinking/EMSA: 2x RNA-binding buffer listed as 5 mM HEPES, 25 mM KCl, 2 mM MgCl2, 2 mM DTT, 0.1 mM …
HuR (ELAVL1) = conditions: HuR alone; SPR: HBS-EP buffer, Biacore T200 SA chip, 1:1 fit. UV crosslinking/EMSA: 2x RNA-binding buffer listed as 5 mM HEPES, 25 mM KCl, 2 mM MgCl2, 2 mM DTT, 0.1 mM …

PDCD4 3'UTR full length
Kd [1]: 10.5 nM | Kd (La (lupus antigen, SSB); La alone, first experiment): 27 nM | Kd (La (lupus antigen, SSB); La alone, second experiment): 22 nM | Kd (La (lupus antigen, SSB); equimolar mix with HuR triple mutant (non-binding), same total protein): 27.5 nM | Kd (HuR (ELAVL1)): 42.7 nM
